Data as given in the supplement of paper PMC12042874.
± gives the uncertainty stated by the source.

experiment: amyloid nucleation score (Sup35N fusion, yeast selection) (log enrichment); library NNK2; higher = more nucleation; inactive = no reads after selection
Procedure, shortened: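 The nucleation score, computed with DiMSum, is the log enrichment of output over input reads, centred on the mode score of non-aggregating sequences. Sequences with under 100 input reads were dropped. Reads were generated by Illumina sequencing of plasmid inserts from psi-negative yeast with Sup35N fused to peptides of 20 random codons, induced with 100 μM copper sulfate for 24 hours and grown 7 days at 30°C on medium lacking adenine and uracil.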

In order of rising amyloid nucleation score:
1. TFLWKFMLNVTTFFIFPKPV  -1.77 ± 1
2. FQYENNVDNG  -1.75 ± 0.62
3. LHGVVGLFKY  -1.55 ± 0.41
4. PFMRYPWYFIAGYV  -1.52 ± 0.49
5. FYTYDLSFMSNYSVLRVLCS  -1.48 ± 0.62
6. GYLYN  -1.32 ± 1.1
7. YYSVGNAGL  -1.3 ± 0.39
8. LGGSSENYGVDCNYYPEMWG  -1.24 ± 0.54
9. YLLGKSYF  -1.08 ± 0.36
10. LSDYLPISSWFSLCTEFLAT  -1.02 ± 1.1
11. SFLLRWSRFVYICYSICCMI  -1.02 ± 0.55
12. FMYWLGCYIRLLCDNLKQRG  -0.979 ± 0.49
13. FYYCRALWVYLVTCWHCLSY  -0.864 ± 1.1
14. DMQGRVVRR  -0.855 ± 0.61
15. LMFLGWASRNLVDKSTFKWI  -0.843 ± 0.79
16. EVLGLV  -0.841 ± 0.64
17. YIIIYLTRHTGVRDVYVSGG  -0.79 ± 1
18. GTLPA  -0.747 ± 0.48
19. KDSITAWCFVVLSVMTRVEY  -0.733 ± 1.1
20. LIFLSDFLLPPSSPARDPYL  -0.719 ± 1.1
21. NDKCKLVLIGLDFNELVQPS  -0.708 ± 1.1
22. DIPTMVNGILYFTGYDPRVS  -0.647 ± 1.1
23. SDRFMIVVDWVILVVLCMT  -0.611 ± 0.39
24. FLFEN  -0.607 ± 0.64
25. GLSRFA  -0.582 ± 1.1
26. GNNNMRPIALCTLSMGGRTF  -0.575 ± 0.49
27. TESGGSLYNPQLIPDIQGSH  -0.552 ± 1.1
28. RYIVILSFVRGSWLYFLTRT  -0.543 ± 0.5
29. TFMWVDSMP  -0.525 ± 0.48
30. SGFVIWRRQHFEFQEVRSS  -0.515 ± 1.1
31. LHLFAKSATSLVIVFAQDLI  -0.455 ± 0.42
32. CPSWSSLLISPYYYSSVSHK  -0.443 ± 0.79
33. RSTPLKYNLRFIPLSHGRRV  -0.431 ± 0.48
34. SSTSLLNLPCWDRIFHTVRL  -0.429 ± 0.42
35. DIKAWLFVRSDIVDGGFADT  -0.405 ± 0.29
36. CPRPTCAPHCWYFVLAMVAR  -0.4 ± 0.64
37. KYERYLNRFSLLLRTAMVHR  -0.362 ± 0.29
38. DFITVYECHCRIFGCVDREA  -0.352 ± 0.5
39. PRWKHLTWIP  -0.349 ± 0.64
40. WFSLFLPPVSSKRQPADEMA  -0.317 ± 1.1
41. REAAVHRLIAWIGFRCRCQV  -0.317 ± 1.1
42. LCSWLEMGFIIRFAGIVRLD  -0.292 ± 0.54
43. KYIYVYNSIGVP  -0.277 ± 1
44. RFRLWIVCG  -0.253 ± 0.26
45. VSYVYYSM  -0.242 ± 1.1
46. NINTSYHNSPCPQYTLASMW  -0.231 ± 1
47. QYRFFVYKLRRQIIYV  -0.191 ± 1.1
48. TNCTDEGIILCHP  -0.19 ± 1.1
49. GSWHDWHRCRSLRYDQTNTS  -0.185 ± 0.39
50. RFGNCGVTMTRSAGRFRAIS  -0.169 ± 0.29
51. SLRYSMRPMAFRFKHPLAPT  -0.166 ± 0.28
52. VWGFVSGIESMCGSKAPNGG  -0.158 ± 0.33
53. WIARC  -0.149 ± 0.42
54. LWHESC  -0.119 ± 0.33
55. TQSIALINTRVELTVDEFSF  -0.111 ± 0.65
56. DGIDTCGMCL  -0.096 ± 0.63
57. SCCYVLKRDFKLMNNVPSGR  -0.033 ± 0.2
58. LADTLVSESKYKWLF  -0.032 ± 1.1
59. SSANDNLNTERDQARLVTRC  -0.013 ± 0.36
60. LANKAYYVCLV  0.022 ± 0.62
61. IDHNTSRC  0.023 ± 0.76
62. LPHKSLFDPLWRIGKILIQH  0.034 ± 1.1
63. LMYSTFMYHRKHWLLALNQN  0.034 ± 1.1
64. VDYTVFGGPTQRIGER  0.073 ± 0.3
65. ENGIICR  0.088 ± 0.49
66. FFLLPLVRYELLSNVDAVPG  0.101 ± 0.76
67. SSTWLGLS  0.112 ± 1.1
68. IHLLPLPYEVPSLLCTSRGP  0.258 ± 0.4
69. RKCLGLRSYATTFRVDQHSC  0.266 ± 0.3
70. NPYAHTGHCVIRGFFVA  0.275 ± 0.53
71. WVTTNMCYTHQFMFGANLVV  0.276 ± 1
72. RVVRLAFNPRPSDAWILYR  0.325 ± 0.34
73. GTGLNKHNNSC  0.36 ± 0.19
74. LCGAKRFMRVQAFEQNVYSR  0.401 ± 0.37
75. ASAVV  0.402 ± 0.26
76. QVPGYIAQSKML  0.407 ± 0.43
77. FLLSVGSHCMPVHEYGMTNA  0.445 ± 0.56
78. DSNMRMIA  0.448 ± 0.6
79. MACKGLSLCFVWVLENKRRS  0.454 ± 0.23
80. HEEVLLHGLVCKLHRMKR  0.474 ± 0.26
81. APSVLGAYQIHRGRVHVLSA  0.494 ± 0.29
82. MVGVVWSMTRFCGQHHTILG  0.531 ± 0.81
83. CGYLSNRSDNRCDLLYACFR  0.571 ± 0.36
84. CNFLQDNVEGVCYNRFKDCL  0.601 ± 0.49
85. THTGLGG  0.654 ± 0.8
86. LRSVKMIRCLNSSLPLNGRG  0.735 ± 0.12
87. AFGNNDDLGARRYGMATPGR  0.746 ± 0.62
88. VDETNAKL  0.785 ± 0.3
89. SGNGTVRSEYTRYCCLKGEM  0.822 ± 0.3
90. QNCQFGMH  0.88 ± 0.48
91. GLTLMWALFGSVYGLRSGMG  0.89 ± 0.28
92. KFASVYWLGLFPLLMPTVVS  0.89 ± 0.43
93. EVRRCGEEFGNGARMRWMGV  0.923 ± 0.28
94. CRHYRRYLLNLQVGWMR  0.978 ± 0.27
95. VSVDHSDFRLNAVSE  1 ± 0.17
96. YTTQLGWWFFRGRTTLNKWV  1.06 ± 0.61
97. NSRLLLTHRRISPSPWYVGV  1.09 ± 0.16
98. VWDLMLKKAFTNSSNCYSVA  1.19 ± 0.19
99. ARNSGWTATSSVYPLKTPAT  1.37 ± 0.42
100. CTILVILSKVSYCQYPWEHV  1.52 ± 0.14
101. IGISWLATWPIEFTRLSRMV  1.53 ± 0.52
102. IGCFTLR  1.58 ± 0.088
103. VWVCSRTGQSQYIISYTALW  1.65 ± 0.2
104. LRFRATLSVLLYLWDTSRHV  1.76 ± 0.26
105. FIRYS  1.79 ± 0.084
106. GNKLYFCSFAWLEVFKFKDL  1.86 ± 0.082
107. LDIYYFKKNSWAFHGSAGYP  1.87 ± 0.11
108. YSRWRSLCTGAAFPGFWLNT  1.96 ± 0.14
109. SLVNYPMKVIGVVRKFW  2.08 ± 0.13
110. VFIFLGLPLFPMITSIDLGY  2.28 ± 0.13
111. FFFVLFGFWYKTRWSMCISK  2.31 ± 0.22
112. SIWYSNYNNSRKIPSAYKKW  2.34 ± 0.071
113. SAVHENVIGVFFGVLVYSNA  2.42 ± 0.1
114. TTTQKGCGVYVAREVSWGLG  2.56 ± 0.093
115. FLLDCN  2.56 ± 0.15
116. IFASSYVLSHYILGGHRSRK  2.7 ± 0.1
117. VMWDNVLSVLLVSGRVAFPM  2.87 ± 0.099
118. LNDNSIGSVILFFSAFLLFY  2.92 ± 0.12
119. TKQPSFTCPGLSSRILRRLK  3.04 ± 0.18
120. AMSFGCSAWYTSYRDMFCRG  3.17 ± 0.15
121. VLNVNDFPNYGRRSCSTNSF  3.18 ± 0.17
122. CVINKKNYDSFGFSVFTFYK  3.19 ± 0.074
123. TCYWRGLAGYR  3.28 ± 0.14
124. YALRLLHGSYNSNT  3.31 ± 0.084
125. SIVNFWNMIVE  3.32 ± 0.15
126. TVFFIVPLCSLLDKVNSLGA  3.34 ± 0.086
127. FICCNNSQIRVSFWLRTWYL  3.39 ± 0.048
128. YVDTRLKTSVLFRK  3.93 ± 0.043
129. LNNYRDGLSY  4.1 ± 0.064
130. IFRSMFILTYPGSRYNDEYL  4.13 ± 0.061
131. CAISM  4.271 ± 0.039
132. VLWHTGDMDMRVNRANELVS  4.52 ± 0.046
133. LRSYWSGIGTTGPV  4.57 ± 0.1
134. WNVWVYLAAAVSGGGPTCVS  4.72 ± 0.076
135. YCSLLL  4.79 ± 0.074
136. VYLDWFYWPDTIHG  4.87 ± 0.075
137. SLDGISHHSTDVNLVLNCYR  5.222 ± 0.045
138. FLFGLSIMLLNKEPGRCFRG  5.23 ± 0.097
139. YMLINAMVTFFMHGVDRKRR  5.516 ± 0.055
140. RSRSGVLVERFMAVSWDAWH  5.691 ± 0.051
141. TFVGSFEILAGNVLCVNKTK  6.031 ± 0.048
142. NFNCAPFLVLYQQVGQAFSL  6.578 ± 0.06
143. IWQNVDCCPSWRLCVANHFM  6.778 ± 0.054
144. RYWWRVRIYFVCCVSSLDWV  7.09 ± 0.077
145. SCDIRRSLVSRAQICVCIVM  7.534 ± 0.071
146. NNMKVDAVVYIATKPGHWDQ  7.589 ± 0.034
147. TFNLVILGVGHSHHFQRNNH  8.269 ± 0.046
148. IAFGAGCLMWSR  8.335 ± 0.063
149. RNITVTIFCLTAHRA  9.317 ± 0.054
150. NHTLVLLIRNSNVHVSTAQS  10.78 ± 0.07

In the case of WVCHVNMRSEYMDIIMEGTN, the amyloid nucleation score is reported as “inactive”.
In the case of MIGDYTSFCMGSGF, the amyloid nucleation score is reported as “inactive”.
For RFCWICCHVQFFYELHITHA, the amyloid nucleation score was “inactive”.
For KLRGIPYRF, the amyloid nucleation score was “inactive”.
In the case of ICYILILYTELVRSSLPFLG, the amyloid nucleation score is reported as “inactive”.
With QWCLSNNVLWEMGVW the amyloid nucleation score was “inactive”.
For NINNFLSISIFNGYASHVNC, the amyloid nucleation score was “inactive”.
For MIQRFVISSGYRGFYLTLLI, the amyloid nucleation score was “inactive”.
With SFDFHNGGDIEYLV the amyloid nucleation score was “inactive”.
For LPMNQGLHYKWLFFAISGGL, the amyloid nucleation score was “inactive”.
In the case of NWGTGQPYNRMCMVH, the amyloid nucleation score is reported as “inactive”.
In the case of THDKLHFLAFVFSPLFLTTM, the amyloid nucleation score is reported as “inactive”.
For WVYKWIWRLFDGFHHQLMLS, the amyloid nucleation score was “inactive”.
With HLVIGFHYSCHGFFLRSFGH the amyloid nucleation score was “inactive”.
In the case of GFWVDQNSDPNWVSQAPDFM, the amyloid nucleation score is reported as “inactive”.
In the case of QRVFDLKSGFGLNRDILVCL, the amyloid nucleation score is reported as “inactive”.
In the case of YLLYYNKWGLIK, the amyloid nucleation score is reported as “inactive”.
For MDFGVLARSNLYIIYYLCLR, the amyloid nucleation score was “inactive”.
In the case of MICHMFMG, the amyloid nucleation score is reported as “inactive”.
In the case of EGFMSFPTN, the amyloid nucleation score is reported as “inactive”.
In the case of MMFNYVFASLGFKRNVHLEC, the amyloid nucleation score is reported as “inactive”.
